Results taken from US20230241243A1, “CARRIER PARTICLE-DRUG CONJUGATES, SELF-IMMOLATIVE LINKERS, AND USES THEREOF” (priority 2020, published 2023).

Assay: Drug-release assay of nanoparticle-conjugated linker-payloads under cleavage conditions (Cat-B, redox-responsive or pH-sensitive cleaving study), RP-HPLC
Type: in vitro ADME
Details: linker-payload conjugated to DBCO-functionalized silica nanoparticle, 37° C., 24 hours
Description: To assess the drug releasing profile of exemplary linker-drug conjugates, the linker-drug conjugates were each conjugated to a DBCO-functionalized ultrasmall silica nanoparticle via a click chemistry reaction between the azide groups on the linker-drug conjugate precursors and the dibenzocyclooctyne (DBCO) groups of the nanoparticles. The resulting drug-nanoparticle-conjugates were then incubated under the desired releasing conditions for release kinetics tests.
The amount of released drugs vs non-released drugs was measured using reverse phase HPLC by analyzing the area under curve (AUC) (FIG. 10A and FIG. 10B).
General Method: A Waters Xbridge Peptide BEH C18 column with 4.6 mm×50 mm dimensions, a particle size of 5 μm, and a pore size of 300 A was used (part number 186003622). Acetonitrile (VWR HiPerSolv Chromanorm, UHPLC Grade) was used as received without further preparation, […] trifluoroacetic acid in deionized water was prepared by adding 1 mL of trifluoroacetic acid (HPLC grade, Millipore-Sigma) into 999 mL 18.2 MΩ·cm deionized water that was generated using an IQ7000 Millipore deionized water system and passed through a 0.2 μm filter before use. The seal wash used for the system was composed of 90% 18.2 MΩ·cm deionized water and 10% methanol (HPLC grade, VWR). The injection needle was washed using a mixture of 25 vol % 18.2 MΩ·cm deionized water, 25 vol % acetonitrile, 25 vol % methanol, and 25 vol % 2-propanol. Samples were prepared in a concentration range of 0.25 to 2 μM and the injection volume ranges from 60 μL to 10 μL, respectively. Higher sample concentration can be used if detector signal is low. Vials used for all injections are fresh Waters Total Recovery vials with screw caps that have pre-slit PTFE septa (part number 186000385C).
Method for Protease-cleavable and Redox-responsive Linkers: Before any sample injections were started, the PDA lamp was turned on and allowed to warm up for at least 30 minutes. The system and column were equilibrated with 95% 0.01% TFA in deionized water, 5% acetonitrile for at least 10 minutes at a flow rate of 1.0 mL/min after the PDA lamp had warmed up. Two blank injections, with injection volumes of 10 μL containing only 18.2 MΩ·cm deionized water, were performed before the injection of any samples for analysis. The gradient used to elute protease-cleavable and redox-sensitive linkers conjugated to hybrid silica nanoparticles, and their components began at 95% 0.01% TFA in deionized water and 5% acetonitrile and linearly changed to 15% 0.01% TFA in deionized water, 85% acetonitrile over 8 minutes. Acetonitrile composition was increased to 95% over an additional minute and held at 95% for an additional 2 minutes to ensure that any strongly retained compounds are eluted. The composition of the solvent was then changed back to the starting composition of the gradient over an additional minute and allowed to equilibrate for 3 minutes before another injection began. Between sample injections a blank injection was run to ensure that no carryover occurred.
Method for pH-sensitive Linkers: Before any sample injections were started, the PDA lamp was turned on and allowed to warm up for at least 30 minutes. A gradient of pure deionized water and acetonitrile was used, all other consumables including column and vials were the same as for the method to purify Cat-B sensitive and redox-responsive linkers elaborated on above. Briefly the gradient composition began at 95% deionized water and 5% acetonitrile at a flow rate of 1.0 mL/min (not changed throughout the method). The composition was changed from this starting composition to 15% deionized water and 85% acetonitrile over a 12-minute period, during which the retained drug-linkers, released drug, free drug linker, and any other impurities eluted. At the 12-minute mark the composition was rapidly changed to 5% deionized water and 95% acetonitrile over the course of one minute. […]

| SMILES | % of Payload Release in 24 Hours Under Cleavage Conditions |
| --- | --- |
| CCc1c2c(nc3ccc(OCc4ccc(NC(=O)[C@H](CCCNC(N)=O)NC(=O)[C@@H](NC(=O)CCOCCOCCOCCOCCOCCOCCOCCOCCOCCN=[N+]=[N-])C(C)C)cc4)cc13)-c1cc3c(c(=O)n1C2)COC(=O)[C@]3(O)CC [Example 48, 1-azido-N-((S)-1-(((S)-1-((4-((((S)-4,11-diethyl-4-hydroxy-3,14-dioxo-3,4,12,14-tetrahydro-1H-pyrano[3′,4′:6,7]indolizino[1,2-b]quinolin-9-yl)oxy)methyl)phenyl)amino)-1-oxo-5-ureidopentan-2-yl)amino)-3-methyl-1-oxobutan-2-yl)-3,6,9,12,15,18,21,24,27-nonaoxatriacontan-30-amide] | + (‘+’ indicates 5-25% release) |
| CC[C@@]1(O)C(=O)OCc2c1cc1n(c2=O)Cc2c-1nc1cc(F)c(C)c3c1c2[C@@H](NC(=O)OCc1ccc(NC(=O)[C@H](CCCCN)NC(=O)[C@H](Cc2ccccc2)NC(=O)CCOCCOCCOCCOCCOCCOCCOCCOCCOCCOCCN=[N+]=[N-])cc1)CC3 [Example 26, 4-((35S,38S)-38-(4-aminobutyl)-1-azido-35-benzyl-33,36-dioxo-3,6,9,12,15,18,21,24,27,30-decaoxa-34,37-diazanonatriacontan-39-amido)benzyl ((1S,9S)-9-ethyl-5-fluoro-9-hydroxy-4-methyl-10,13-dioxo-2,3,9,10,13,15-hexahydro-1H,12H-benzo[de]pyrano[3′,4′:6,7]indolizino[1,2-b]quinolin-1-yl)carbamate] | + (‘+’ indicates 5-25% release) |
| CC[C@@]1(O)C(=O)OCc2c1cc1n(c2=O)Cc2c-1nc1cc(F)c(C)c3c1c2[C@@H](NC(=O)CSSC(C)(C)CNC(=O)CCOCCOCCOCCOCCOCCOCCOCCOCCOCCOCCOCCOCCN=[N+]=[N-])CC3 [Example 60, 1-azido-N-(2-((2-(((1S,9S)-9-ethyl-5-fluoro-9-hydroxy-4-methyl-10,13-dioxo-2,3,9,10,13,15-hexahydro-1H,12H-benzo[de]pyrano[3′,4′:6,7]indolizino[1,2-b]quinolin-1-yl)amino)-2-oxoethyl)disulfaneyl)-2-methylpropyl)-3,6,9,12,15,18,21,24,27,30,33,36-dodecaoxanonatriacontan-39-amide] | +++ (‘+++’ indicates 51-75% release) |
| CC[C@@]1(O)C(=O)OCc2c1cc1n(c2=O)Cc2c-1nc1cc(F)c(C)c3c1c2[C@@H](NC(=O)OCc1ccc(NC(=O)[C@H](CCCNC(N)=O)NC(=O)[C@@H](NC(=O)CCOCCOCCOCCOCCOCCOCCOCCOCCOCCOCCOCCN=[N+]=[N-])C(C)C)cc1)CC3 [Example 11, 4-((38S,41S)-1-azido-38-isopropyl-36,39-dioxo-41-(3-ureidopropyl)-3,6,9,12,15,18,21,24,27,30,33-undecaoxa-37,40-diazadotetracontan-42-amido)benzyl ((1S,9S)-9-ethyl-5-fluoro-9-hydroxy-4-methyl-10,13-dioxo-2,3,9,10,13,15-hexahydro-1H,12H-benzo[de]pyrano[3′,4′:6,7]indolizino[1,2-b]quinolin-1-yl)carbamate] | +++ (‘+++’ indicates 51-75% release) |
| CC[C@@]1(O)C(=O)OCc2c1cc1n(c2=O)Cc2c-1nc1cc(F)c(C)c3c1c2[C@@H](NC(=O)C(O)c1ccc(NC(=O)[C@H](CCCCN)NC(=O)[C@H](Cc2ccccc2)NC(=O)CCOCCOCCOCCOCCOCCOCCN=[N+]=[N-])cc1)CC3 (single isomer, unassigned) [Example 29-Peak 2] | ++ (‘++’ indicates 26-50% release) |
| CC[C@@]1(O)C(=O)OCc2c1cc1n(c2=O)Cc2c-1nc1cc(F)c(C)c3c1c2[C@@H](NC(=O)OCc1ccc(NC(=O)[C@H](CCCNC(N)=O)NC(=O)[C@@H](NC(=O)CCCCCCN=[N+]=[N-])C(C)C)cc1)CC3 [Example 30, 4-((S)-2-((S)-2-(7-Azidoheptanamido)-3-methylbutanamido)-5-ureidopentanamido)benzyl ((1S,9S)-9-ethyl-5-fluoro-9-hydroxy-4-methyl-10,13-dioxo-2,3,9,10,13,15-hexahydro-1H,12H-benzo[de]pyrano[3′,4′:6,7]indolizino[1,2-b]quinolin-1-yl)carbamate] | ++ (‘++’ indicates 26-50% release) |
| CCc1c2c(nc3ccc(OC(C(=O)OC)c4ccc(NC(=O)[C@H](CCCNC(N)=O)NC(=O)[C@@H](NC(=O)CCOCCOCCOCCOCCOCCOCCOCCOCCOCCOCCOCCN=[N+]=[N-])C(C)C)cc4)cc13)-c1cc3c(c(=O)n1C2)COC(=O)[C@]3(O)CC (stereo partly drawn) [Example 14-R isomer, Methyl 2-(4-((38S,41S)-1-azido-38-isopropyl-36,39-dioxo-41-(3-ureidopropyl)-3,6,9,12,15,18,21,24,27,30,33-undecaoxa-37,40-diazadotetracontan-42-amido)phenyl)-2-(((S)-4,11-diethyl-4-hydroxy-3,14-dioxo-3,4,12,14-tetrahydro-1H-pyrano[3′,4′:6,7]indolizino[1,2-b]quinolin-9-yl)oxy)acetate] | + (‘+’ indicates 5-25% release) |
| CCc1c2c(nc3ccc(OC(C(=O)OC)c4ccc(NC(=O)[C@H](CCCNC(N)=O)NC(=O)[C@@H](NC(=O)CCOCCOCCOCCOCCOCCOCCOCCOCCOCCN=[N+]=[N-])C(C)C)cc4)cc13)-c1cc3c(c(=O)n1C2)COC(=O)[C@]3(O)CC (stereo partly drawn) [Example 13-R isomer, Methyl 2-(4-((32S,35S)-1-azido-32-isopropyl-30,33-dioxo-35-(3-ureidopropyl)-3,6,9,12,15,18,21,24,27-nonaoxa-31,34-diazahexatriacontan-36-amido)phenyl)-2-(((S)-4,11-diethyl-4-hydroxy-3,14-dioxo-3,4,12,14-tetrahydro-1H-pyrano[3′,4′:6,7]indolizino[1,2-b]quinolin-9-yl)oxy)acetate] | + (‘+’ indicates 5-25% release) |
| CC[C@@]1(O)C(=O)OCc2c1cc1n(c2=O)Cc2c-1nc1cc(F)c(C)c3c1c2[C@@H](NC(=O)C(=O)c1ccc(NC(=O)[C@H](CCCNC(N)=O)NC(=O)[C@@H](NC(=O)CCOCCOCCOCCOCCOCCOCCN=[N+]=[N-])C(C)C)cc1)CC3 [Example 24, 1-azido-N-((S)-1-(((S)-1-((4-(2-(((1S,9S)-9-ethyl-5-fluoro-9-hydroxy-4-methyl-10,13-dioxo-2,3,9,10,13,15-hexahydro-1H,12H-benzo[de]pyrano[3′,4′:6,7]indolizino[1,2-b]quinolin-1-yl)amino)-2-oxoacetyl)phenyl)amino)-1-oxo-5-ureidopentan-2-yl)amino)-3-methyl-1-oxobutan-2-yl)-3,6,9,12,15,18-hexaoxahenicosan-21-amide] | + (‘+’ indicates 5-25% release) |
| CCc1c2c(nc3ccc(OCc4ccc(NC(=O)[C@H](CCCNC(N)=O)NC(=O)[C@@H](NC(=O)CCOCCOCCOCCOCCOCCOCCOCCOCCOCCOCCOCCN=[N+]=[N-])C(C)C)cc4)cc13)-c1cc3c(c(=O)n1C2)COC(=O)[C@]3(O)CC [Example 49, 1-azido-N-((S)-1-(((S)-1-((4-((((S)-4,11-diethyl-4-hydroxy-3,14-dioxo-3,4,12,14-tetrahydro-1H-pyrano[3′,4′:6,7]indolizino[1,2-b]quinolin-9-yl)oxy)methyl)phenyl)amino)-1-oxo-5-ureidopentan-2-yl)amino)-3-methyl-1-oxobutan-2-yl)-3,6,9,12,15,18,21,24,27,30,33-undecaoxahexatriacontan-36-amide] | + (‘+’ indicates 5-25% release) |
